Assay results taken from US20220111034A1, “VIRUS COMPOSITIONS” (priority 2019, published 2022).

Key:
[1] = molecular target: human JAM-A expressed on the surface of transduced Lec2 or CHO cells (Lec2-JAM-A, CHO-JAM-A) (human) (UniProt Q9Y624); experiment: FD-based AFM adhesion mapping on living Lec2-JAM-A cells
[2] = molecular target: human JAM-A expressed on the surface of transduced Lec2 or CHO cells (Lec2-JAM-A, CHO-JAM-A) (human) (UniProt Q9Y624); experiment: FD-based AFM on Lec2-JAM-A cells, after injection of 1 mM Neu5Ac
[3] = molecular target: human JAM-A expressed on the surface of transduced Lec2 or CHO cells (Lec2-JAM-A, CHO-JAM-A) (human) (UniProt Q9Y624); experiment: FD-based AFM on Lec2-JAM-A cells, after injection of 1 mM LNnT
[4] = molecular target: His6-tagged JAM-A (Bio-Connect Life Science), immobilized on NTA-Ni2+ surfaces or biosensors; experiment: AFM force spectroscopy on JAM-A model surface after injection of 1 mM Neu5Ac or LSTa
[5] = molecular target: human JAM-A expressed on the surface of transduced Lec2 or CHO cells (Lec2-JAM-A, CHO-JAM-A) (human) (UniProt Q9Y624); experiment: FD-based AFM on neuraminidase-treated Lec2-JAM-A cells after injection of Neu5Ac, against before injection
[6] = molecular target: human JAM-A expressed on the surface of transduced Lec2 or CHO cells (Lec2-JAM-A, CHO-JAM-A) (human) (UniProt Q9Y624); experiment: FD-based AFM on Lec2-JAM-A cells, before injection of 1 mM LNnT
[7] = molecular target: human JAM-A expressed on the surface of transduced Lec2 or CHO cells (Lec2-JAM-A, CHO-JAM-A) (human) (UniProt Q9Y624); experiment: FD-based AFM on Lec2-JAM-A cells, after injection of 1 mM LSTa
[8] = molecular target: His6-tagged JAM-A (Bio-Connect Life Science), immobilized on NTA-Ni2+ surfaces or biosensors; experiment: AFM dynamic force spectroscopy, Bell-Evans fit, JAM-A model surface
[9] = molecular target: human JAM-A expressed on the surface of transduced Lec2 or CHO cells (Lec2-JAM-A, CHO-JAM-A) (human) (UniProt Q9Y624); experiment: FD-based AFM on Lec2-JAM-A cells, before injection of 1 mM LSTa
[10] = molecular target: His6-tagged JAM-A (Bio-Connect Life Science), immobilized on NTA-Ni2+ surfaces or biosensors; experiment: single-virus AFM force spectroscopy, virion on tip, His6-JAM-A model surface
[11] = molecular target: human JAM-A expressed on the surface of transduced Lec2 or CHO cells (Lec2-JAM-A, CHO-JAM-A) (human) (UniProt Q9Y624); experiment: FD-based AFM on Lec2-JAM-A cells, before injection of 1 mM Neu5Ac

Sequence of human JAM-A expressed on the surface of transduced Lec2 or CHO cells (Lec2-JAM-A, CHO-JAM-A) (human) (Q9Y624 28-299): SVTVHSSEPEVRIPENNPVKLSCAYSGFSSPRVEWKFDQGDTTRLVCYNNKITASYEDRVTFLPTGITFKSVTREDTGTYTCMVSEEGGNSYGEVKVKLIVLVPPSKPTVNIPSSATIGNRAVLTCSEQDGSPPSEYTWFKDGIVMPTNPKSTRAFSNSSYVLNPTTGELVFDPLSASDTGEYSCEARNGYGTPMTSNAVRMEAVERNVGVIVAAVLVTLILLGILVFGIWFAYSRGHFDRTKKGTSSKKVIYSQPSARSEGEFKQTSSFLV

Substance	binding force (rupture force) [1] [pN]	density of adhesion events (binding frequency) [1] [%]	binding frequency [2] [%]	binding frequency [3] [%]	overall binding force [4] [pN]	increase in binding [5] [%]	binding frequency [6] [%]	binding frequency [7] [%]	koff [8] [s⁻¹]	xu (distance to the transition state) [8] [nm]	binding frequency [9] [%]	specific binding force [10] [pN]	binding frequency [11] [%]	frequency of adhesion events (binding frequency) [1] [%]
T3SA+ reovirus virion (wild-type strain type 3 Dearing, T3D), binding through its outer-capsid attachment protein sigma-1 (σ1) (from UniProt P03528 1-455)	50 to 400	3.5	4.9	3.9	< 400	20	3.8	4.8	0.04	0.71	3.8	20 to 130	3.9	–
T3SA- reovirus virion (T3D derivative carrying a point mutation in sigma-1, T3D-σ1R202W) (from UniProt P03528 1-455)	–	–	–	–	–	–	–	–	0.05	0.48	–	20 to 130	–	4
